Molecular target: HA-APP (full-length, APP695 spliced isoform) (UniProt P05067)
Assay: ELISA

Substance: MDGA1 MAM-Fc (recombinant MDGA1 MAM domain fused to Fc) (from UniProt Q8NFP4 751-918) (Fc fusion)
- Kd: 41.3 nM
